# Assay results reported in patent US20130196320A1, “METHOD FOR IMPROVING CLEAVAGE OF DNA BY ENDONUCLEASE SENSITIVE TO METHYLATION” (CELLECTIS, priority 2010, published 2013).
# Assays:
# Type in all cases: cell-based, human
# [1] = test system: XPC4 target CpG motives in 293H cells; experiment: DNA methylation of XPC4 target by bisulfite treatment and sequencing, 5-aza-2-deoxycytidine treatment; settings: for amount of unmethylated C, % of total: one of the two CpG of XPC4 target; for amount of unmethylated C: the other CpG of XPC4 target
# Procedure: FIG. 9: Chromatograms of sequencing reactions at the XPC4 target locus, made after bisulfite treatment. Cells were pre-treated with 5-aza-2-deoxycytidine at 0.2 μM or 1 μM 48 hours before transfection with the XPC4 meganuclease or with an empty vector. The treatment was maintained 48 hours post-transfection. As a control, we used cells not treated with 5-aza-2-deoxycytidine (NT). Two days post transfection, genomic DNA was extracted and treated with bisulfite, which converts cytosine, but not 5-methylcytosine into uracil. DNA from the XPC4 target locus region was amplified by PCR, and sequenced. Sequence of the XPC4 target is indicated on top (XPC4 target), with the two CpG motives being underlined. On the chromatograms, 5-methyl-cytosines appear as cytosines (C), and non methylated cytosines (converted to uracil) as thymines (T). In the presence of 5-aza-2-deoxycytidine, a fraction of the CpG motives is demethylated, resulting in a dual C/T peak.
# The human 293H cells (ATCC) were plated at a density of 1.2×10^6 cells per 10 cm dish in complete medium (DMEM supplemented with 2 mM L-glutamine, penicillin (100 IU/ml), streptomycin (100 μg/ml), amphotericin B (Fongizone: 0.25 μg/ml, Invitrogen-Life Science) and 10% FBS) supplemented with 5-aza-deoxycytidine. The next day, cells were transfected with 3 μg of meganuclease expression vector in the presence of 5-aza-deoxycytidine and Lipofectamine 2000 transfection reagent (Invitrogen) according to the manufacturer's protocol.
# Cells were pre-treated with 5-aza-deoxycytidine at 0.2 μM or 1 μM 48 hours before transfection and the treatment was maintained 48 hours post-transfection. As a control, cells not treated with 5-aza-2-deoxycytidine (NT) were used. Extraction of genomic DNA was performed 48 hours after transfection.
# To assess the level DNA methylation, DNA sequencing was performed after a bisulfite treatment according to the instructions of the manufacturer (EZ DNA methylation-Gold Kit, Zymo Research). After genomic DNA extraction, the XPC4 target locus was amplified by PCR with specific primers
# [2] = test system: XPC4 endogenous locus in 293H cells; experiment: Gene targeting induced by XPC4 meganuclease at its endogenous locus, PCR on cellular clones; settings: for targeted events, % of the transfected cells: XPC4 meganuclease + repair matrix, n=2
# Procedure: FIG. 11: XPC4 meganuclease efficiency is impaired by DNA methylation in vivo. 293H cells were co-transfected with 3 μg of XPC4 meganuclease expressing vector or empty vector and 2 μg of DNA repair matrix vector in presence or absence of DNA methylation inhibitor (5-aza-2′deoxycytidine). 480 individual cellular clones were analyzed in each condition for the presence of targeted events using specific PCR amplification.
# Cell culture as well as general transfection conditions were described in “material and methods” section of part b) above. For this assay, 293H cells were co-transfected with 3 μg of XPC4 meganuclease expressing vector or empty vector and 2 μg of DNA repair matrix. The DNA repair matrix consists of a left and right arms corresponding to isogenic sequences of 1 kb located on both sides of the meganuclease recognition site. These two homology arms are separated by a heterologous fragment of 29 bp (sequence: […], SEQ ID NO: 64). Two days post-transfection, cells were replated in 10 cm dish. Two weeks later, individual clones were picked and subsequently amplified in 96 wells plates for 3 days. 480 individual cellular clones were then analyzed per condition. DNA extraction was performed with the ZR-96 genomic DNA kit (Zymo research) according to the supplier's protocol. The detection of targeted DNA matrix integrations was performed by specific PCR amplification using the primers: XPC4_F4: 5′-[…]-3′ (SEQ ID NO: 41) (located within the 29 bp of heterologous sequence, i.e. SEQ ID NO: 64) and XPC4_R4: 5′-[…]-3′ (located on the genomic sequence outside of the homology) (SEQ ID NO: 42).
# [3] = test system: ADCY9 endogenous recognition site in 293H cells; experiment: Meganuclease-induced mutagenesis assay at ADCY9 recognition site
# Procedure: The human 293H cells (ATCC) were plated at a density of 1.2×10^6 cells per 10 cm dish in complete medium (DMEM supplemented with 2 mM L-glutamine, penicillin (100 IU/ml), streptomycin (100 μg/ml), amphotericin B (Fongizone: 0.25 μg/ml, Invitrogen-Life Science) and 10% FBS). The cells were pre-treated with 5-aza-deoxycytidine at 0.2 μM or 1 μM, 48 hours before transfection and the treatment was maintained 48 hours post-transfection. The medium was changed every day. The cells were transfected with 5 μg of DNA plasmids encoding meganuclease using Lipofectamine 2000 transfection reagent (Invitrogen) according to the manufacturer's protocol.
# The efficiency of the meganuclease to promote mutagenesis at its endogenous recognition site was evaluated by sequencing the DNA surrounding the meganuclease cleavage site.
# Two days post-transfection, genomic DNA was extracted. 200 ng of genomic DNA were used to amplify (PCR amplification) the endogenous locus surrounding the meganuclease cleavage site. PCR amplification is performed to obtain a fragment flanked by specific adaptor sequences [adaptor A: 5′-[…]-NNNN-3′ (SEQ ID NO: 46) and adaptor B, 5′-[…]-3′ (SEQ ID NO: 47)] provided by the company offering sequencing service (GATC Biotech AG, Germany) on the 454 sequencing system (454 Life Sciences). The primers sequences used for PCR amplification were: ADCY9_F3: 5′-[…]-NNNN-[…]-3′ (SEQ ID NO: 48) and ADCY9_R3: 5′-[…]-[…]-3′ (SEQ ID NO: 49). Sequences specific to the locus are underlined. The sequence NNNN in primer F1 is a Barcode sequence (Tag) needed to link the sequence with a PCR product. The percentage of PCR fragments carrying insertion or deletion at the meganuclease cleavage site is related to the mutagenesis induced by the meganuclease through NHEJ pathway in a cell population, and therefore correlates with the meganuclease activity at its endogenous recognition site. 5000 to 10000 sequences were analyzed per conditions.
molecule,measurement,setting,value
"Nc1ncn([C@H]2C[C@H](O)[C@@H](CO)O2)c(=O)n1 [5-aza-2′deoxycytidine, reference compound]","amount of unmethylated C, % of total",[1]; 0.2 μM,25%
same,"amount of unmethylated C, % of total",[1]; 1 μM,36%
same,amount of unmethylated C,[1]; 0.2 μM,35%
same,amount of unmethylated C,[1]; 1 μM,45%
same,targeted events,"[2]; absence of meganuclease, with 5-aza-2′deoxycytidine treatment",no targeted events could be detected
same,"mutagenesis, PCR fragments carrying a mutation","[3]; Empty vector, 0.2 μM 5-aza-2′-deoxycytidine",0.03%
same,"mutagenesis, PCR fragments carrying a mutation","[3]; Empty vector, 1 μM 5-aza-2′-deoxycytidine",0.03%
XPC4: engineered meganuclease (SEQ ID NO: 2) designed to cleave xeroderma pigmentosum group C gene (XPC) (protein) MANTKYNEEFLLYLAGFVDGDGSIIAQIKPNQSHKFKHALQLTFKVTQKTQRRWFLDKLVDEIGVGYVQDSGSVSNYILSEIKPLHNFLTQLQPFLELKQKQANLALKIIEQLPSAKESPDKFLEVCTWVDQVAALNDSKTRKTTSETVRAVLDSLSEKKKSSPAAGGSDKYNQALSKYNQALSKYNQALSGGGGSNKKFLLYLAGFVDSDGSIIAQIKPNQSHKFKHQLSLAFQVTQKTQRRWFLDKLVDRIGVGYVRDRGSVSDYILSKIKPLHNFLTQLQPFLKLKQKQANLVLKIIEQLPSAKESPDKFLEVCTWVDQVAALNDSKTRKTTSETVRAVLDSLSEKKKSSP,"targeted events, % of the transfected cells",[2]; 5-aza-2′deoxycytidine (0.2 μM),12.5%±0.26
same,"targeted events, % of the transfected cells",[2]; absence of 5-aza-2′deoxycytidine,1.05%±0.34
same,increase of targeted event frequency,[2]; with 5-aza-2′deoxycytidine (0.2 μM) vs without,12 fold
ADCY9: engineered meganuclease (SEQ ID NO: 3) designed to cleave adenylate cyclase 9 gene (protein) MANTKYNEEFLLYLAGFVDGDGSIIAQIKPNQSYKFKHQLSLTFRVTQKTQRRWFLDKLVDEIGVGYVRDSGSVSNYDLSEIKPLHNFLTQLQPFLELKQKQANLVLKIIEQLPSAKESPDKFLEVCTWVDQVAALNDSKTRKTTSETVRAVLDSLSEKKKSSPAAGGSDKYNQALSKYNQALSKYNQALSGGGGSNKKFLLYLAGFVDSDGSIIAQIKPDQSYKFKHQLGLTFQVTQKTQRRWFLDKLVDRIGVGYVRDRGSVSDYILSEIKPLHNFLTQLQPFLKLKQKQANLVLKIIEQLPSAKESPDKFLEVCTWVDQVAALNDSKTRKTTSETVRAVLDSLSEKKKSSP,"mutagenesis, PCR fragments carrying a mutation","[3]; ADCY9 meganuclease, 0 μM 5-aza-2′-deoxycytidine",0.16% ± 0.06
same,"mutagenesis, PCR fragments carrying a mutation","[3]; ADCY9 meganuclease, 0 μM 5-aza-2′-deoxycytidine, listed as ADCY9 meganuclease",0.16%±0.06
same,"mutagenesis, PCR fragments carrying a mutation","[3]; ADCY9 meganuclease, 0.2 μM 5-aza-2′-deoxycytidine",0.48% ± 0.01
same,"mutagenesis, PCR fragments carrying a mutation","[3]; ADCY9 meganuclease, 1 μM 5-aza-2′-deoxycytidine",0.36%
same,mutations,"[3]; ADCY9 meganuclease, samples treated with 5-aza-2′deoxycytidine, n=2",up to 0.48%±0.01
